From patent US20250206813A1 (NVH MEDICINAL, published 2025)

T1: CUB2 domain of PCPE-1 (human, UniProt Q15113 159-273)
T1 construct: domain: CUB2
T1 sequence (looked up): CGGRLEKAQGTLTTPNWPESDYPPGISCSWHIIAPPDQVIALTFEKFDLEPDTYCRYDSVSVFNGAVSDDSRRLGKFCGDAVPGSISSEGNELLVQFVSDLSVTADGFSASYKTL

T2: PCPE-1 (Procollagen C-proteinase enhancer-1) glycoprotein, human (human, UniProt Q15113 26-449)
T2 construct: mature; Secreted recombinant protein; also called purified human PCPE-1
T2 sequence (looked up): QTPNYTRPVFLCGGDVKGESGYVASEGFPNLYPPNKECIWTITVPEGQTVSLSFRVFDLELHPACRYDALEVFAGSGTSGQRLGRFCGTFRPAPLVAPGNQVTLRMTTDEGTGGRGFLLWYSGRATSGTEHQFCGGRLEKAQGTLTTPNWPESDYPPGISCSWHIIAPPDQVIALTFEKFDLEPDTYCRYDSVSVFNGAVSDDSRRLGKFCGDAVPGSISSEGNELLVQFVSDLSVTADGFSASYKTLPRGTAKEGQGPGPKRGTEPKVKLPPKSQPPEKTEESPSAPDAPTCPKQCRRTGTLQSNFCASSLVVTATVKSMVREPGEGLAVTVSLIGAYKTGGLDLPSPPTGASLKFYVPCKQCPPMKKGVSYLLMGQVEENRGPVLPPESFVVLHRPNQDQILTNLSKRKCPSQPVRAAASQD

T3: PCPE-2 (with a 6-his N-terminal tag) (UniProt Q9UKZ9 24-415)
T3 construct: not shown: N-terminal 6-His tag
T3 sequence (looked up): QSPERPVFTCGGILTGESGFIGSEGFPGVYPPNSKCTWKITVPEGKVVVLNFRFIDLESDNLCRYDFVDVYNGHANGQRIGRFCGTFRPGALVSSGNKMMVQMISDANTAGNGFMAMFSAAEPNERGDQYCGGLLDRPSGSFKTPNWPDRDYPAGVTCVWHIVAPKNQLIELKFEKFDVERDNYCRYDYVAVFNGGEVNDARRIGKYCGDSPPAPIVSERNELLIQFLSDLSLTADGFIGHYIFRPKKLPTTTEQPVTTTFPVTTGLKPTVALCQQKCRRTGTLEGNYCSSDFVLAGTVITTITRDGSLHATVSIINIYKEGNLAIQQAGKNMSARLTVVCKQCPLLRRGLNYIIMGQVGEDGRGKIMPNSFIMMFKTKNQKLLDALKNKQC

T4: CUB1 domain of PCPE-1 (human, UniProt Q15113 37-149)
T4 construct: domain: CUB1
T4 sequence (looked up): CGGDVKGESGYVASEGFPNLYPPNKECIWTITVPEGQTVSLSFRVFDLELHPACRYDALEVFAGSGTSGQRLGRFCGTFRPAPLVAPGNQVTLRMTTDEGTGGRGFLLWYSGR

B1: VHH-H10 (VHH)
VHH: EVQLQASGGGFVQPGGSLRLSCAASGYGWWIYEMGWFRQAPGKEREFVSAISWADGTRTYYADSVKGRFTISRDNSKNTVYLQMNSLRAEDTATYYCAIYILEGTQGVPIYWGQGTQVTVSS
notes: Synthetic nanobody (hsd2ab library), pET29b(+) vector, pelB signal; not shown: C-terminal 6-His tag
B2: VHH-H4 (VHH)
VHH: EVQLQASGGGFVQPGGSLRLSCAASGFTSEISNMGWFRQAPGKEREFVSAISGTHTTQTYYADSVKGRFTISRDNSKNTVYLQMNSLRAEDTATYYCAAEQDMSDLWLGSYWGQGTQVTVSS
notes: Synthetic nanobody (hsd2ab library), pET29b(+) vector, pelB signal; also called nanobody-H4; not shown: C-terminal 6-His tag
B3: VHH-H4 biotinylated at its C-terminus using sortase (VHH)
VHH: B2 VHH
modifications: C-terminal biotin (GGGK-biotin ligated by Sortase A at the LPETG site)
notes: pHEN vector with LPETG and 6-His; Captured on streptavidin; also called biotinylated VHH-H4; biotinylated H4 nanobody; not shown: GGGK-biotin ligated by Sortase A in place of the 6-His label
B4: VHH-I5 biotinylated at its C-terminus using sortase (VHH)
VHH: QVQLVESGGGLVQPGGFLRLLCTASGNIFSSNTMGWYRRAPGKQREWVASISKGGSTNYADSVKDRFTISRSITKNTVYLQMVNLKPEDTAVYYCNPVPDSDNYASGQGTQVTVSS
modifications: C-terminal biotin (GGGK-biotin ligated by Sortase A at the LPETG site)
notes: pHEN vector with LPETG and 6-His; Captured on streptavidin; also called biotinylated VHH-I5; not shown: GGGK-biotin ligated by Sortase A in place of the 6-His label
B5: VHH-I5 (VHH)
VHH: B4 VHH
notes: Llama nanobody, pHEN6 vector, pelB signal, produced in E. coli periplasm; also called nanobody-I5; 15; not shown: C-terminal 6-His tag
B6: VHH-H7 (VHH)
VHH: EVQLQASGGGFVQPGGSLRLSCAASGYYFRGEDMGWFRQAPGKEREFVSAISDDSTATIYYADSVKGRFTISRDNSKNTVYLQMNSLRAEDTATYYCAPGWYIYLDWSESGSAYWGQGTQVTVSS
notes: as for B1
B7: VHH-H6 (VHH)
VHH: EVQLQASGGGFVQPGGSLRLSCAASGFTSARYNMGWFRQAPGKEREFVSAISRHTDRQTYYADSVKGRFTISRDNSKNTVYLQMNSLRAEDTATYYCAVGMMPKQKQYWGQGTQVTVSS
notes: as for B1
B8: VHH-I4 (VHH)
VHH: QVQLVESGGGSVAAGESLTLSCRMSGSTSSIQAMGWYRRAPGNQREWLATISPRGNTNYADSVKGRFTISRDNAKNTVYLQMNSLKPADTAVYYCNTVPSGGIPWGQGTQVTVSS
notes: Llama nanobody, pHEN6 vector, pelB signal, produced in E. coli periplasm; also called nanobody I4; not shown: C-terminal 6-His tag
B9: VHH-I3 (VHH)
VHH: QVQLVESGGGLVEPGGSLRLSCAVSGSTFSMNVMGWYRQAPGKHREWVGSIGTGGGTNYPDSVKGRFTISRDNVKKTVYLQMNSLKPEDTAVYYCNKIPHNWGWGQGTQVTVSS
notes: Llama nanobody, pHEN6 vector, pelB signal, produced in E. coli periplasm; also called nanobody I3; 13; not shown: C-terminal 6-His tag
B10: VHH-I2 (VHH)
VHH: QVQLVESGGGWVQPGGSLRLSCAASGITFSTKTMGWYRQRPGKRREWIGSISPTGFTNYADAVKGRVTISRDNGENTVYLQMNSLKPEDTAVYFCNGVPPVIIDGQSVAYWGQGTQVTVSS
notes: Llama nanobody, pHEN6 vector, pelB signal, produced in E. coli periplasm; also called nanobody I2; not shown: C-terminal 6-His tag
B11: VHH-H9 (VHH)
VHH: EVQLQASGGGFVQPGGSLRLSCAASGDTFNLTTMGWFRQAPGKEREFVSAISSSNTHIAYYADSVKGRFTISRDNSKNTVYLQMNSLRAEDTATYYCAYTYYGKNGKGMVYWGQGTQVTVSS
notes: as for B1
B12: VHH-H8 (VHH)
VHH: EVQLQASGGGFVQPGGSLRLSCAASGYTSDLTVMGWFRQAPGKEREFVSAISSHFGPPHYYADSVKGRFTISRDNSKNTVYLQMNSLRAEDTATYYCAMRERRHSWWYWGQGTQVTVSS
notes: as for B1
B13: VHH-H2 (VHH)
VHH: EVQLQASGGGFVQPGGSLRLSCAASGSTSRDEGMGWFRQAPGKEREFVSAISRDHGWREYYADSVKGRFTISRDNSKNTVYLQMNSLRAEDTATYYCAPVIIDTMEVIPLYWGQGTQVTVSS
notes: as for B1
B14: VHH-H3 (VHH)
VHH: EVQLQASGGGFVQPGGSLRLSCAASGATYWFSSMGWFRQAPGKEREFVSAISYWFDDIEYYADSVKGRFTISRDNSKNTVYLQMNSLRAEDTATYYCAMWNEQTGEEYWGQGTQVTVSS
notes: as for B1
B15: VHH-H1 (VHH)
VHH: EVQLQASGGGFVQPGGSLRLSCAASGRTWSFYAMGWFRQAPGKEREFVSAISWNGGGEHYYADSVKGRFTISRDNSKNTVYLQMNSLRAEDTATYYCAHMEFSQSDYIISKWIYWGQGTQVTVSS
notes: as for B1
B16: VHH-I7 (VHH)
VHH: QVQLVESGGGLVPPGGSLKLSCTASGSIFSSNVMGWYRRAPGKQREWVASISRGGGTNYPDSVKGRFTVSRDIAKNTVYLQISSLKPEDTAVYYCNPIPYSGDYVSGQGTQVTVSS
notes: Llama nanobody, pHEN6 vector, pelB signal, produced in E. coli periplasm; also called nanobody I7; 17; not shown: C-terminal 6-His tag
B17: VHH-I11 (VHH)
VHH: QVQLVESGGGTVQAGGSLRLSCTASGRGRNAMGWYRQVPGGKRELVASINRGGTTDYTDSVKDRFTISRDSAKNTVYLQMDSLQPEDTAVYYCNAESTVIPGHIYDYWGRGTQVTVSS
notes: Llama nanobody, pHEN6 vector, pelB signal, produced in E. coli periplasm; also called nanobody I11; not shown: C-terminal 6-His tag

target: T1, CUB2 domain of PCPE-1; test: SPR competition: VHH (50 nM) co-injected with the soluble CUB2 domain (250 nM) over immobilized PCPE-1

B1: no binding (tested: 250 nM).
B2: no binding (tested: 250 nM).

target: T2, PCPE-1 (Procollagen C-proteinase …); test: SPR, biotinylated VHH on streptavidin chip, PCPE-1 injected, 1:1 binding model
Procedure: (§1) FIG. 2D: VHHs […] is biotinylated and immobilized on a streptavidin chip (813 RU), then increasing concentrations of PCPE-1 (black) or PCPE-2 (grey) are injected.
(§2) FIG. 2E: VHH H4 is biotinylated and immobilized on a streptavidin chip (491 RU), then increasing concentrations of PCPE-1 or PCPE-2 are injected. [0038] D, E: Interactions are modeled (dotted line) using the Langmuir model (Biacore T200 Evaluation software, Cytiva)
(§3) PCPE-2 is a protein in the same family as PCPE-1, with a 43% identical amino acid sequence. It shares certain activities with PCPE-1, but also has very different specific functions. The specificity of nanobody interaction for PCPE-1 versus PCPE-2 was analyzed by SPR. To achieve this, VHH-I5 and VHH-H4 were biotinylated at their C-terminus using sortase, then immobilized on a streptavidin surface. […] The affinity of VHH-I5 and -H4 for PCPE-1 is therefore at least 250 times greater than for PCPE-2.

In order of rising Kd:
1. B4  1.45 nM
2. B3  3.88 nM

In order of rising koff:
1. B4  0.00136 s⁻¹
2. B3  0.0195 s⁻¹

In order of falling kon:
1. B3  5.04e+06 M⁻¹ s⁻¹
2. B4  937000 M⁻¹ s⁻¹

target: T2, PCPE-1 (Procollagen C-proteinase …); test: SPR competition: PCPE-1 (5 nM) co-injected with VHH on immobilized Mini III; VHH-I5 alone, 5 nM PCPE-1
Procedure: (§4) Surface plasmon resonance (SPR) experiments were carried out on a Biacore T200 (Cytiva). The ligand proteins, in solution in 10 mM HEPES pH 7.4 buffer for PCPE-1 or 10 mM sodium acetate pH 4.5 buffer for mini-procollagen III and streptavidin, are immobilized on CM5 chips by amine coupling. Analytes are diluted in running buffer (10 mM HEPES pH 7.4, 0.15 M NaCl, 5 mM CaCl₂), 0.05% P20) and injected at a flow rate of 30 or 50 μL/min. Competition, epitope binning and kinetics experiments were all carried out at 25° C. Regeneration was achieved by successive injection of 2 M guanidine chloride and 0.5 M EDTA for 30 sec. Sensorgrams were analyzed with Biacore T200 Evaluation v3.2.1 (Cytiva), using the most suitable models. IC50 was determined by non-linear regression using GraphPad Prism (v8.2.1).
(§5) What is more, their antagonistic effects are additive, and co-injection of a mixture of VHH-I5 and VHH-H4 with PCPE-1 virtually eliminates its interaction with Mini III.

Work on B5 yielded an IC50 of roughly 24 nM.

target: T2, PCPE-1 (Procollagen C-proteinase …); test: SPR, VHH injected on immobilized PCPE-1

Going from B6 to B1, the Kd falls from 152 nM to 18 nM (8.4-fold). The second binds more tightly here.

Going from B2 to B7, the Kd rises from 30 nM to greater than 250 nM. The first binds more tightly here.

Compared with B8, B9 is lower in Kd: greater than 250 nM for the first, 16 nM for the second.

Compared with B10, B11 is higher in Kd: 154 nM for the first, greater than 250 nM for the second. The first binds more tightly here.

B12 and B13 cannot be ordered by Kd: greater than 250 nM for the first, greater than 250 nM for the second.

B14 and B15 cannot be ordered by Kd: greater than 250 nM for the first, greater than 250 nM for the second.

First: B16
Second: B17
The Kd of the first is 13-fold lower: 12.8 nM for the first, 161 nM for the second. The first binds more tightly here.

B5 showed a Kd of 7.2 nM.

target: T2, PCPE-1 (Procollagen C-proteinase …); test: SPR, biotinylated VHH on streptavidin chip; reference PCPE-2
Procedure: as §1, §2, §3

B3 and B4 cannot be ordered by “fold affinity for PCPE-1 over PCPE-2” value: no less than 250 fold for the first, no less than 250 fold for the second.

target: T3, PCPE-2 (with a 6-his N-terminal tag); test: SPR, biotinylated VHH on streptavidin chip, PCPE-2 injected
Procedure: as §1, §2, §3

B3 and B4 cannot be ordered by Kd: greater than 1000 nM for the first, greater than 1000 nM for the second.

target: T4, CUB1 domain of PCPE-1; test: SPR competition: VHH (50 nM) co-injected with the soluble CUB1 domain (250 nM) over immobilized PCPE-1

B9: no binding (tested: 250 nM).

target: T2, PCPE-1 (Procollagen C-proteinase …); test: SPR competition: PCPE-1 (5 nM) co-injected with VHH on immobilized Mini III; VHH-H4 alone, 5 nM PCPE-1
Procedure: as §4, §5

B2 gave an IC50 of roughly 45 nM.
